From patent US8461305B2, “L-fucose α1→6 specific lectin” (J-Oil Mills, Inc., priority 2008, dated 2013)

B1: Lens culinaris agglutinin (protein)
chain 1: TETTSFSITKFSPDQKNLIFQGDGYTTKGKLTLTKAVKSTVGRALYSTPIHIWDRDTGNVANFVTSFTFVIDAPSSYNVADEFTFFIAPVDTKPQTGGGYLGVFNSKEYDKTSQTVAVEFDTFYNAAWDPSNKERHIGIDVNSIKSVNTKSWNLQNGERANVVIAFNAATNVLTVTLTYP
chain 2: VTSYTLNEVVPLKDVVPEWVRIGFSATTGAEFAAHEVHSWSFHSELGGTSSS
B2: Pisum sativum agglutinin (protein)
chain: TETTSFLITKFSPDQQNLIFQGDGYTTKEKLTLTKAVKNTVGRALYSSPIHIWDRETGNVANFVTSFTFVINAPNSYNVADGFTFFIAPVDTKPQTGGGYLGVFNSAEYDKTTQTVAVEFDTFYNAAWDPSNRDRHIGIDVNSIKSVNTKSWKLQNGEEANVVIAFNAATNVLTVSLTYPNSLEEENVTSYTLSDVVSLKDVVPEWVRIGFSATTGAEYAAHEVLSWSFHSELSGTSSSKQAADA

How the values were obtained:
[1] = frontal affinity chromatography (FAC), association constant to PA sugar chains having α1→6 L-fucose; assay type: binding; conditions: 25 degrees C.
Method: (§1) The following section will describe a method of calculating an association constant by frontal affinity chromatography (FAC). This method is based on the following principle. […] Then, the elution front end (front) is observed immediately. When there is an affinity with lectin, the elution of the sugar chain is delayed.
(§2) The preparation of a lectin column used in the apparatus is performed in the method as described below. 1. Purified lectin is dissolved in 0.1 to 0.2M of NaHCO3 buffer solution (pH 8.3 to 8.5). 2. The lectin is immobilized, via a lectin primary amino group, a carrier such as NHS activated sepharose. 3. Then, the lectin is blocked by Tris buffer solution including primary amine or ethanolamine for example. 4. Lectin-sepharose is suspended in 10 mM Tris buffer, including 0.8% of NaCl (pH 7.4, TBS). Then, lectin immobilized resin is filled in a miniature column (φ2 mm×10 mm, 31.4 μl). 5. The miniature column in which the lectin immobilized resin is filled is protected by a holder and the lectin column is connected to an FAC automatic analysis apparatus (FAC-1, SHIMADZU CORPORATION).
(§3) Then, the elution of the PA sugar chain from the column is detected by a fluorescence detector (excitation wavelength/fluorescence wavelength: 310 nm/380 nm).
(§4) Based on the detection data, by using the elution front end (Vo) of the sugar chain (PA rhamnose) not interacting with lectin as a reference, the delay (V−Vo) of the elution front end (V) of a sugar chain interacting with lectin is calculated as an interaction strength. Then, based on the following FAC criteria expressions, the association constant (Ka) between the sugar chain and lectin is calculated based on V−Vo and Bt. If the interaction strength (V−Vo value) and the association constant are higher, a higher affinity is caused between lectin and an L-fucose α1→6 sugar chain.
(§5) [In the formula, A means substance used for the elution, Ao means the initial concentration of the substance A, B means a immobilized ligand, V means the elution volume, Vo means the elution front end volume of the substance not interacting with the immobilized ligand B at all, Bt means an effective ligand amount, Kd means a dissociation constant (an inverse of the association constant)].
(§6) Pyridylaminated (PA) sugar chains shown in FIG. 1 and FIG. 2 were used to frontal affinity chromatography (FAC) analysis. PA sugars were purchased from TAKARA BIO INC., SEIKAGAKU BIOBUSINESS CORPORATION, and Masuda Chemical Industries co., LTD. PA sugar were also obtained by pyridylaminating, by GlycoTAG®(TAKARA BIO INC.), an unlabeled sugar chain or a sugar chain obtained by subjecting a sugar chain to enzyme digestion for example.
(§7) Lectin was dissolved in 0.2 M NaHCO3 buffer solution (pH 8.3) including 0.5 M NaCl and coupled to the NHS-activated sepharose (GE Healthcare Bioscience) by following the manufacturer's instructions. Then, lectin immobilized sepharose was suspended in 10 mM Tris buffer (pH 7.4, TBS) including […] and the resultant matter was filled in a miniature column (φ2 mm×10 mm, 31.4 μl).
(§8) Frontal affinity chromatography was performed using FAC automatic analysis apparatus (FAC-1, SHIMADZU CORPORATION). In particular, the above-prepared lectin column was inserted to a stainless steel holder and the holder was connected to FAC-1 apparatus. The flow rate and the column temperature were maintained at 0.125 ml/min and 25 degrees C., respectively. After the miniature column was equilibrated by the TBS, an excessive volume (0.5 ml to 4 ml) of a PA sugar chain (3.75 nM or 7.5 nM) was continuously inputted to the column using an automatic sampling apparatus.
(§9) The fluorescent strength of the eluate of the PA sugar (excitation wavelength of 310 nm and fluorescence wavelength of 380 nm) was monitored to measure the interaction strength [a difference of the front end eluate to the standard oligosaccharide (PA rhamnose): V−V0]. […]

[2] = frontal affinity chromatography (FAC), association constant to PA sugar chains having other L-fucose; assay type: binding; conditions: 25 degrees C.
Method: as §1, §2, §3, §4, §5, §6, §7, §8, §9

[3] = Sugar chain No. 728 (as listed in Table 5/12)

| Molecule | association constant Ka ([1]; Sugar chain No. 015) [M⁻¹] | association constant Ka ([1]; Sugar chain No. 201) [M⁻¹] | association constant Ka ([1]; Sugar chain No. 202) [M⁻¹] | association constant Ka ([1]; Sugar chain No. 203) [M⁻¹] | association constant Ka ([1]; Sugar chain No. 401) [M⁻¹] | association constant Ka ([1]; Sugar chain No. 402) [M⁻¹] | association constant Ka ([1]; Sugar chain No. 403) [M⁻¹] | association constant Ka ([1]; Sugar chain No. 404) [M⁻¹] | association constant Ka ([1]; Sugar chain No. 405) [M⁻¹] | association constant Ka ([1]; Sugar chain No. 406) [M⁻¹] | association constant Ka ([1]; Sugar chain No. 407) [M⁻¹] | association constant Ka ([1]; Sugar chain No. 410) [M⁻¹] | association constant Ka ([1]; Sugar chain No. 413) [M⁻¹] | association constant Ka ([1]; Sugar chain No. 418) [M⁻¹] | association constant Ka ([1]; Sugar chain No. 601) [M⁻¹] | association constant Ka ([1]; Sugar chain No. 602) [M⁻¹] | association constant Ka ([2]; Sugar chain No. 419) [M⁻¹] | association constant Ka ([2]; Sugar chain No. 420) [M⁻¹] | association constant Ka ([2]; Sugar chain No. 718) [M⁻¹] | association constant Ka ([2]; Sugar chain No. 719) [M⁻¹] | also measured |
| --- | --- | --- | --- | --- | --- | --- | --- | --- | --- | --- | --- | --- | --- | --- | --- | --- | --- | --- | --- | --- | --- |
| B1 | 56000 | 500000 | 110000 | 73000 | 42000 | 59000 | 99000 | 58000 | 47000 | 18000 | 1000 | <1000 | <1000 | <1000 | 30000 | 24000 | <1000 | <1000 | <1000 | <1000 | association constant Ka ([2]; Sugar chain No. 720): <1000 M⁻¹; association constant Ka ([2]; Sugar chain No. 721): <1000 M⁻¹; association constant Ka ([2]; Sugar chain No. 722): <1000 M⁻¹; association constant Ka ([2]; Sugar chain No. 723): <1000 M⁻¹; association constant Ka ([2]; Sugar chain No. 726): <1000 M⁻¹; association constant Ka ([2]; Sugar chain No. 727): <1000 M⁻¹; association constant Ka [2, 3]: <1000 M⁻¹; association constant Ka ([2]; Sugar chain No. 729): <1000 M⁻¹; association constant Ka ([2]; Sugar chain No. 730): <1000 M⁻¹; association constant Ka ([2]; Sugar chain No. 731): <1000 M⁻¹; association constant Ka ([2]; Sugar chain No. 739): <1000 M⁻¹; association constant Ka ([2]; Sugar chain No. 909): <1000 M⁻¹; association constant Ka ([2]; Sugar chain No. 910): <1000 M⁻¹; association constant Ka ([2]; Sugar chain No. 931): <1000 M⁻¹; association constant Ka ([2]; Sugar chain No. 932): <1000 M⁻¹; association constant Ka ([2]; Sugar chain No. 933): <1000 M⁻¹ |
| B2 | 120000 | 100000 | 44000 | 25000 | 92000 | 48000 | 38000 | 45000 | 36000 | 13000 | <1000 | <1000 | <1000 | <1000 | 31000 | 29000 | <1000 | <1000 | <1000 | <1000 | association constant Ka ([2]; Sugar chain No. 720): <1000 M⁻¹; association constant Ka ([2]; Sugar chain No. 721): <1000 M⁻¹; association constant Ka ([2]; Sugar chain No. 722): <1000 M⁻¹; association constant Ka ([2]; Sugar chain No. 723): <1000 M⁻¹; association constant Ka ([2]; Sugar chain No. 726): <1000 M⁻¹; association constant Ka ([2]; Sugar chain No. 727): <1000 M⁻¹; association constant Ka [2, 3]: <1000 M⁻¹; association constant Ka ([2]; Sugar chain No. 729): <1000 M⁻¹; association constant Ka ([2]; Sugar chain No. 730): <1000 M⁻¹; association constant Ka ([2]; Sugar chain No. 731): <1000 M⁻¹; association constant Ka ([2]; Sugar chain No. 739): <1000 M⁻¹; association constant Ka ([2]; Sugar chain No. 909): <1000 M⁻¹; association constant Ka ([2]; Sugar chain No. 910): <1000 M⁻¹; association constant Ka ([2]; Sugar chain No. 931): <1000 M⁻¹; association constant Ka ([2]; Sugar chain No. 932): <1000 M⁻¹; association constant Ka ([2]; Sugar chain No. 933): <1000 M⁻¹ |
